Sequences and labels used below:
B1: Myocardin-related transcription factor A, residues 341 to 383; numbered along this chain, Q969V6 (parent)
chain: GALPANLDDMKVAELKQELKLRSLPVSGTKTELIERLRAYQDQ

± gives the uncertainty stated by the source.

This data set covers variants of B1. Kind of data set: abundance fitness (aPCA) (normalised: wild type 0, dead -1); higher = more abundant; growth selection in yeast, the domain comes from the species named. As to conditions: Homo sapiens.
Consider GALPANLTDMKVAELKQELKLRSLPVSGTKTELIERLRAYQDQ [D8T], for which the abundance fitness is -0.129 ± 0.095.
GALPANLDDMKVAELKQELKLRSLPVSGTKTELIERLRSYQDQ [A39S]: the abundance fitness turned out to be 0.221 ± 0.073.
With GALPANLDDMKVAELKQELKLRSLPVSGTKTELIERLREYQDQ [A39E], the abundance fitness worked out at 0.411 ± 0.11.
Turning to GALPANLDDMKVAELKQELKLRSLPVSGTKTELIERLRLYQDQ [A39L], the abundance fitness worked out at 0.168 ± 0.077.
For GALPANLDDMKVAELKQELKLRSLPVSGTKTELIERLRVYQDQ [A39V], the abundance fitness is 0.187 ± 0.06.
With GALPANLDDMKVAELKQELKLRSLPVSGTKTELIERLRAYQDI [Q43I], the abundance fitness was determined as 0.042 ± 0.11.
For GALPANLDDMKVAELKQELKLRSLPVSGTKTELIECLRAYQDQ [R36C] the value was -0.128 ± 0.12; for GALPANLDDMKVAELKQELKLRSLPVSGTKTELIEELRAYQDQ [R36E], -0.529 ± 0.12; for GALPANLDDMKVAELKQELKLRSLPVSGTKTELIEALRAYQDQ [R36A], -0.128 ± 0.066.
Consider GALPANLDDMKVAELKQELKLRSLPVSGTKTELIEQLRAYQDQ [R36Q], for which the abundance fitness was -0.201 ± 0.072.
For SALPANLDDMKVAELKQELKLRSLPVSGTKTELIERLRAYQDQ [G1S] the value was -0.438 ± 0.44; for DALPANLDDMKVAELKQELKLRSLPVSGTKTELIERLRAYQDQ [G1D], -0.587 ± 0.09; for GALPANLDDMKVAWLKQELKLRSLPVSGTKTELIERLRAYQDQ [E14W], -0.314 ± 0.089.
Take GALPANLDDMKVATLKQELKLRSLPVSGTKTELIERLRAYQDQ [E14T]: the abundance fitness was -0.134 ± 0.096.
On to GALPANLDDMKVAPLKQELKLRSLPVSGTKTELIERLRAYQDQ [E14P], for which the abundance fitness is -0.656 ± 0.12.
Take GALPANLDDMKVAGLKQELKLRSLPVSGTKTELIERLRAYQDQ [E14G]: the abundance fitness is -0.165 ± 0.064.
Next, GALPANLDDMPVAELKQELKLRSLPVSGTKTELIERLRAYQDQ [K11P]: -0.166 ± 0.098.
For the variant GALPANLDDMEVAELKQELKLRSLPVSGTKTELIERLRAYQDQ [K11E], the abundance fitness stood at 0.047 ± 0.074.
GALPANLDDMSVAELKQELKLRSLPVSGTKTELIERLRAYQDQ [K11S]: the abundance fitness was -0.029 ± 0.093.
For GALPANLDDMRVAELKQELKLRSLPVSGTKTELIERLRAYQDQ [K11R] the value was -0.079 ± 0.059; for GALPANLDDMKVAELKQELKLRSLPVSGTPTELIERLRAYQDQ [K30P], -0.242 ± 0.17; for GALPANLDDMKVAELKQELKLRSLPVSGTITELIERLRAYQDQ [K30I], -0.158 ± 0.15.
On to GALPANLDDMKVAELKQELKLRSLPVSGTWTELIERLRAYQDQ [K30W], for which the abundance fitness was -0.6 ± 0.081.
For GALPANLDDMKVAELKQELKLRSLPVSGTNTELIERLRAYQDQ [K30N], the abundance fitness was -0.343 ± 0.11.
With GALPANLDDMKVAELKQCLKLRSLPVSGTKTELIERLRAYQDQ [E18C], the abundance fitness is -0.2 ± 0.1.
Turning to GALPANLDDMKVAELKQPLKLRSLPVSGTKTELIERLRAYQDQ [E18P], the abundance fitness was -1.33 ± 0.25.
Turning to GALPANLDDMKVAELKQELKLRSLPVSCTKTELIERLRAYQDQ [G28C], the abundance fitness is -0.608 ± 0.25.
With GALPANLDDMKVAELKQELKLRSLPVSDTKTELIERLRAYQDQ [G28D], the abundance fitness was -0.758 ± 0.13.
Turning to GALPANLDDQKVAELKQELKLRSLPVSGTKTELIERLRAYQDQ [M10Q], the abundance fitness was -0.434 ± 0.13.
On to GALPANLDDWKVAELKQELKLRSLPVSGTKTELIERLRAYQDQ [M10W], for which the abundance fitness was -0.41 ± 0.091.
As for GALPANLDDGKVAELKQELKLRSLPVSGTKTELIERLRAYQDQ [M10G], the abundance fitness was -0.839 ± 0.071.
As to GALPANLDAMKVAELKQELKLRSLPVSGTKTELIERLRAYQDQ [D9A], the abundance fitness worked out at 0.203 ± 0.11.
On to GALPANLDKMKVAELKQELKLRSLPVSGTKTELIERLRAYQDQ [D9K], for which the abundance fitness was 0.404 ± 0.15.
For GALPANLDWMKVAELKQELKLRSLPVSGTKTELIERLRAYQDQ [D9W], the abundance fitness was -0.139 ± 0.076.
Take GALPANLDGMKVAELKQELKLRSLPVSGTKTELIERLRAYQDQ [D9G]: the abundance fitness was found to be 0.13 ± 0.062.
With GALPANLDDMKVAELKCELKLRSLPVSGTKTELIERLRAYQDQ [Q17C], the abundance fitness is -0.593 ± 0.11.
For the variant GALPANLDDMKVAELKEELKLRSLPVSGTKTELIERLRAYQDQ [Q17E], the abundance fitness came to 0.048 ± 0.083.
Consider GALPANLDDMKVAELKKELKLRSLPVSGTKTELIERLRAYQDQ [Q17K], for which the abundance fitness is -0.283 ± 0.14.
For the variant GALPANLDDMKVAELKDELKLRSLPVSGTKTELIERLRAYQDQ [Q17D], the abundance fitness was -0.247 ± 0.091.
Take GALPANLDDMKVAELKMELKLRSLPVSGTKTELIERLRAYQDQ [Q17M]: the abundance fitness was determined as 0.079 ± 0.12.
GALPAPLDDMKVAELKQELKLRSLPVSGTKTELIERLRAYQDQ [N6P]: the abundance fitness is -1.5 ± 0.12.
For GALPANLDDMKVAELKQELKLRLLPVSGTKTELIERLRAYQDQ [S23L], the abundance fitness was -0.018 ± 0.071.
GALPANLDDMKVAELKQELKLRALPVSGTKTELIERLRAYQDQ [S23A]: the abundance fitness is 0.018 ± 0.063.
For GALPANLDDMKVAELKQELKLRQLPVSGTKTELIERLRAYQDQ [S23Q], the abundance fitness was -0.101 ± 0.083.
For GALPANLDDMKVAELKQELKLRDLPVSGTKTELIERLRAYQDQ [S23D] the value was 0.073 ± 0.072.
Take GALPANLDDMKVAELKQELKLRVLPVSGTKTELIERLRAYQDQ [S23V]: the abundance fitness is -0.22 ± 0.072.
As for GALPANLDDMKVAELKQELKLRILPVSGTKTELIERLRAYQDQ [S23I], the abundance fitness was -0.307 ± 0.084.
As for GSLPANLDDMKVAELKQELKLRSLPVSGTKTELIERLRAYQDQ [A2S], the abundance fitness is 0.209 ± 0.094.
In the case of GCLPANLDDMKVAELKQELKLRSLPVSGTKTELIERLRAYQDQ [A2C], the abundance fitness is -0.077 ± 0.092.
In the case of GALPANLDDMKVAELKQELKLRSLPVSGTKTEQIERLRAYQDQ [L33Q], the abundance fitness was -0.128 ± 0.091.
With GALPANLDDMKVAELKQELKLRSLPVSGTKTESIERLRAYQDQ [L33S], the abundance fitness is -0.067 ± 0.094.
As to GALPANLDDMKVAELKQELKLRSLPVSGTKTETIERLRAYQDQ [L33T], the abundance fitness is -0.283 ± 0.098.
Consider GALPANLDDMKVAELKQELKLRSLPVSGTKTERIERLRAYQDQ [L33R], for which the abundance fitness is -0.617 ± 0.07.
As to GALPANLDDMKVAELKQELKLRSLPVSGTKTEMIERLRAYQDQ [L33M], the abundance fitness came to 0.046 ± 0.32.
Regarding GALPANLDDMKVAELKQELKLRSLPVSGTKTELIARLRAYQDQ [E35A], the abundance fitness came out at 0.23 ± 0.06.
For the variant GALPANLDDMKVAELKQELKLRSLPVSGTKTELIVRLRAYQDQ [E35V], the abundance fitness was -0.171 ± 0.078.
Consider GALPANLDDMKVAELKQELKLKSLPVSGTKTELIERLRAYQDQ [R22K], for which the abundance fitness was -0.318 ± 0.14.
For GALPANLDDMKVAELKQELKLVSLPVSGTKTELIERLRAYQDQ [R22V], the abundance fitness is -0.277 ± 0.094.
On to GALPANLDDMKVAELKQELKLASLPVSGTKTELIERLRAYQDQ [R22A], for which the abundance fitness is -0.099 ± 0.16.

Source of the values: the Human Domainome abundance scans (Beltran et al. 2025).
